We go through one substance from patent publication US20230159624A1.

Where only a bound is given, the exact number is not on record here.

Experiment [1] addresses MT1-MMP (R&D, 918-MP-010) (UniProt P50281). The experiment can be described thus: enzyme inhibition kinetics with fluorescent substrate, LS-55 spectrofluorimeter.
The target is the same in experiment [2]. Nature of the experiment: enzyme inhibition kinetics with fluorescent substrate Mca-K-P-L-G-L-Dpa-A-R-NH2, LS-55 spectrofluorimeter.

In the case of “Wild Type TIMP-1 (inhibitory domain) (from UniProt P01033 24-149)”, the Ki^app was above 150 nM in experiment [1] and 178 nM in experiment [2].
